From article PMC11577753, “Identification and characterization of a novel formaldehyde dehydrogenase in Bacillus subtilis” (Applied and Environmental Microbiology, 2024) come the findings set out here.

Substrate in the data set: C=O
Put plainly: purified protein. Type of data set: biochemical, Bacillus subtilis. The settings on record: 10 mM NAD+, 50 mM BISTRIS propane pH 9.0, 25 mM NaCl, 37 °C (Fig 6 legend; methods say 40 °C).

B1: YycR (Bacillus subtilis subsp. subtilis str. 168) (protein)
chain: MGGMALTGNKAVVYKGKGTVAVEDIGYPELILRDGPGVPKANVNRKCEHGVILKVITTNICGSDQHMVRGRTTAPEGLVLGHEITGEVIETGRDVEFIKKGDIVSVPFNIACGRCVMCKTQKTHVCLNVNPDRPGSAYGYVDMGGWVGGQSEYVMVPYADFQLLVFPDKEQALEKILDLTMLSDIFPTGFHGAYTAGVQTGSTVYIAGAGPVGLAAAHSAQLLGASTVIVGDLNEDRLAQARSFGCETVNVQKHDRLGEQIEQILGEPTVDAAVDCVGFEASGHGNQGEAPAAVLNSIMDVTQVGGSLGIPGLYVTEDPGAKDADAKTGSLKIRFGLGWAKAHTFVTGQTPAMTYNRNLMKAILSGRAQIAKAVNATVISLDDAPKGYSDFDKGAAKKFVIDPHGTLK
notes: full-length, C-terminal His tag (pNIC-CH) kept, E. coli T7 Express, HisTrap purified, 44 kDa; zinc-type, metal as purified
In general, Km refers to the concentration of substrate that gives half-maximal velocity. What is called kcat is the number of substrate molecules converted per active site and unit of time at saturation. In the case of B1, the Km was 190 ± 50 µM and the kcat came out at 0.52 s⁻¹.
